From patent US20180360932A1 (OPKO BIOLOGICS, published 2018)

Columns and labels:
[1] = molecular target: MOD-5014 (FVIIa-CTP3, activated Factor VII-CTP-CTP-CTP) (human) (UniProt P08709); assay: cell-based or functional assay
[2] = molecular target: NovoSeven (commercial recombinant human FVIIa) (human) (UniProt P08709); assay: cell-based or functional assay

Sequence of Tissue Factor Pathway Inhibitor (TFPI) (P10646 29-304 limits assumed): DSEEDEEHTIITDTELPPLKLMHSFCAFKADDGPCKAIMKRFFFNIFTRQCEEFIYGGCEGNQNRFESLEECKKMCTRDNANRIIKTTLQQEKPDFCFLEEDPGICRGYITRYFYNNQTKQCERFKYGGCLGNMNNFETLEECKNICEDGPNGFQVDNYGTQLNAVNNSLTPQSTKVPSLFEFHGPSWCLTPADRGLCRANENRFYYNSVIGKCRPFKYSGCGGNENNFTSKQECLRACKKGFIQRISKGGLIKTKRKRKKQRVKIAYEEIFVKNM

- % Inhibition of clotting activity, TFPI 0.625 ng/mL [1]: 15%
- % Inhibition of clotting activity, TFPI 6.25 ng/mL [1]: 15%
- % Inhibition of clotting activity, TFPI 62.5 ng/mL [1]: 29%
- % Inhibition of clotting activity, TFPI 625 ng/mL [1]: 80%
- % Inhibition of clotting activity, TFPI 1250 ng/mL [1]: 89%
- Activity (mU/mL), clotting assay, TFPI 0 ng/mL (no inhibitor) [1]: 66.8 mU/mL
- Activity (mU/mL), clotting assay, TFPI 0.625 ng/mL [1]: 56.7 mU/mL
- Activity (mU/mL), clotting assay, TFPI 6.25 ng/mL [1]: 56.7 mU/mL
- Activity (mU/mL), clotting assay, TFPI 62.5 ng/mL [1]: 47.4 mU/mL
- Activity (mU/mL), clotting assay, TFPI 625 ng/mL [1]: 13.2 mU/mL
- Activity (mU/mL), clotting assay, TFPI 1250 ng/mL [1]: 7.3 mU/mL
- FX activation by MOD-5014 (0.7 ng/ml) + 1 U/µl heparin, TFPI 0.002048 ng/ml [1]: 1.27
- FX activation by MOD-5014 (0.7 ng/ml) + 1 U/µl heparin, TFPI 0.010240 ng/ml [1]: 1.29
- FX activation by MOD-5014 (0.7 ng/ml) + 1 U/µl heparin, TFPI 0.051200 ng/ml [1]: 1.35
- FX activation by MOD-5014 (0.7 ng/ml) + 1 U/µl heparin, TFPI 1.28 ng/ml [1]: 1.26
- FX activation by MOD-5014 (0.7 ng/ml) + 1 U/µl heparin, TFPI 6.40 ng/ml [1]: 1.16
- FX activation by MOD-5014 (0.7 ng/ml) + 1 U/µl heparin, TFPI 32.00 ng/ml [1]: 0.915
- FX activation by MOD-5014 (0.7 ng/ml) + 1 U/µl heparin, TFPI 160.00 ng/ml [1]: 0.539
- FX activation by MOD-5014 (0.7 ng/ml) + 1 U/µl heparin, TFPI 800.00 ng/ml [1]: 0.32
- FX activation by MOD-5014 (0.7 ng/ml) + 1 U/µl heparin, TFPI 4000.00 ng/ml [1]: 0.115
- FX activation by MOD-5014 (0.7 ng/ml) + 1 U/µl heparin, TFPI 20000.00 ng/ml [1]: 0.15
- FX activation by MOD-5014 (0.7 ng/ml), Control [1]: 1.37
- FX activation by MOD-5014 (4 ng/ml), Control (no TFPI) [1]: 1.58
- FX activation by MOD-5014 (4 ng/ml), TFPI 0.002048 ng/ml [1]: 1.65
- FX activation by MOD-5014 (4 ng/ml), TFPI 0.010240 ng/ml [1]: 1.64
- FX activation by MOD-5014 (4 ng/ml), TFPI 0.051200 ng/ml [1]: 1.6
- FX activation by MOD-5014 (4 ng/ml), TFPI 0.2560 ng/ml [1]: 1.62
- FX activation by MOD-5014 (4 ng/ml), TFPI 1.28 ng/ml [1]: 1.56
- FX activation by MOD-5014 (4 ng/ml), TFPI 6.40 ng/ml [1]: 1.54
- FX activation by MOD-5014 (4 ng/ml), TFPI 32.00 ng/ml [1]: 1.47
- FX activation by MOD-5014 (4 ng/ml), TFPI 160.00 ng/ml [1]: 1.14
- FX activation by MOD-5014 (4 ng/ml), TFPI 800.00 ng/ml [1]: 0.836
- FX activation by MOD-5014 (4 ng/ml), TFPI 4000.00 ng/ml [1]: 0.38
- FX activation by MOD-5014 (4 ng/ml), TFPI 20000.00 ng/ml [1]: 0.17
- O.D, FX activation by MOD-5014 (0.69 ng/ml), Control (no TFPI) [1]: 1.51 O.D
- O.D, FX activation by MOD-5014 (0.69 ng/ml), TFPI 0.002048 ng/ml [1]: 1.48 O.D
- O.D, FX activation by MOD-5014 (0.69 ng/ml), TFPI 0.010240 ng/ml [1]: 1.45 O.D
- O.D, FX activation by MOD-5014 (0.69 ng/ml), TFPI 0.051200 ng/ml [1]: 1.45 O.D
- O.D, FX activation by MOD-5014 (0.69 ng/ml), TFPI 0.2560 ng/ml [1]: 1.46 O.D
- O.D, FX activation by MOD-5014 (0.69 ng/ml), TFPI 1.28 ng/ml [1]: 1.39 O.D
- O.D, FX activation by MOD-5014 (0.69 ng/ml), TFPI 6.40 ng/ml [1]: 1.38 O.D
- O.D, FX activation by MOD-5014 (0.69 ng/ml), TFPI 32.00 ng/ml [1]: 1.36 O.D
- O.D, FX activation by MOD-5014 (0.69 ng/ml), TFPI 160.00 ng/ml [1]: 1.11 O.D
- O.D, FX activation by MOD-5014 (0.69 ng/ml), TFPI 800.00 ng/ml [1]: 1.01 O.D
- O.D, FX activation by MOD-5014 (0.69 ng/ml), TFPI 4000.00 ng/ml [1]: 0.691 O.D
- O.D, FX activation by MOD-5014 (0.69 ng/ml), TFPI 20000.00 ng/ml [1]: 0.346 O.D
- % Inhibition of clotting activity, TFPI 0.625 ng/mL [2]: 25%
- % Inhibition of clotting activity, TFPI 6.25 ng/mL [2]: 24%
- % Inhibition of clotting activity, TFPI 62.5 ng/mL [2]: 38%
- % Inhibition of clotting activity, TFPI 625 ng/mL [2]: 87%
- % Inhibition of clotting activity, TFPI 1250 ng/mL [2]: 96%
- Activity (mU/mL), clotting assay, TFPI 0 ng/mL (no inhibitor) [2]: 72.3 mU/mL
- Activity (mU/mL), clotting assay, TFPI 0.625 ng/mL [2]: 54.5 mU/mL
- Activity (mU/mL), clotting assay, TFPI 6.25 ng/mL [2]: 55.3 mU/mL
- Activity (mU/mL), clotting assay, TFPI 62.5 ng/mL [2]: 45 mU/mL
- Activity (mU/mL), clotting assay, TFPI 625 ng/mL [2]: 9.5 mU/mL
- Activity (mU/mL), clotting assay, TFPI 1250 ng/mL [2]: 2.9 mU/mL
- FX activation by NovoSeven (0.7 ng/ml) + 1 U/µl heparin, TFPI 0.002048 ng/ml [2]: 1.33
- FX activation by NovoSeven (0.7 ng/ml) + 1 U/µl heparin, TFPI 0.010240 ng/ml [2]: 1.3
- FX activation by NovoSeven (0.7 ng/ml) + 1 U/µl heparin, TFPI 0.051200 ng/ml [2]: 1.37
- FX activation by NovoSeven (0.7 ng/ml) + 1 U/µl heparin, TFPI 1.28 ng/ml [2]: 1.31
- FX activation by NovoSeven (0.7 ng/ml) + 1 U/µl heparin, TFPI 6.40 ng/ml [2]: 1.21
- FX activation by NovoSeven (0.7 ng/ml) + 1 U/µl heparin, TFPI 32.00 ng/ml [2]: 1.01
- FX activation by NovoSeven (0.7 ng/ml) + 1 U/µl heparin, TFPI 160.00 ng/ml [2]: 0.764
- FX activation by NovoSeven (0.7 ng/ml) + 1 U/µl heparin, TFPI 800.00 ng/ml [2]: 0.409
- FX activation by NovoSeven (0.7 ng/ml) + 1 U/µl heparin, TFPI 4000.00 ng/ml [2]: 0.241
- FX activation by NovoSeven (0.7 ng/ml) + 1 U/µl heparin, TFPI 20000.00 ng/ml [2]: 0.222
- FX activation by NovoSeven (0.7 ng/ml), Control [2]: 1.47
- FX activation by NovoSeven (4 ng/ml), Control (no TFPI) [2]: 1.66
- FX activation by NovoSeven (4 ng/ml), TFPI 0.002048 ng/ml [2]: 1.72
- FX activation by NovoSeven (4 ng/ml), TFPI 0.010240 ng/ml [2]: 1.7
- FX activation by NovoSeven (4 ng/ml), TFPI 0.051200 ng/ml [2]: 1.73
- FX activation by NovoSeven (4 ng/ml), TFPI 0.2560 ng/ml [2]: 1.7
- FX activation by NovoSeven (4 ng/ml), TFPI 1.28 ng/ml [2]: 1.66
- FX activation by NovoSeven (4 ng/ml), TFPI 6.40 ng/ml [2]: 1.59
- FX activation by NovoSeven (4 ng/ml), TFPI 32.00 ng/ml [2]: 1.5
- FX activation by NovoSeven (4 ng/ml), TFPI 160.00 ng/ml [2]: 1.34
- FX activation by NovoSeven (4 ng/ml), TFPI 800.00 ng/ml [2]: 1.02
- FX activation by NovoSeven (4 ng/ml), TFPI 4000.00 ng/ml [2]: 0.406
- FX activation by NovoSeven (4 ng/ml), TFPI 20000.00 ng/ml [2]: 0.206
- O.D, FX activation by NovoSeven (0.64 ng/ml), Control (no TFPI) [2]: 1.51 O.D
- O.D, FX activation by NovoSeven (0.64 ng/ml), TFPI 0.002048 ng/ml [2]: 1.5 O.D
- O.D, FX activation by NovoSeven (0.64 ng/ml), TFPI 0.010240 ng/ml [2]: 1.51 O.D
- O.D, FX activation by NovoSeven (0.64 ng/ml), TFPI 0.051200 ng/ml [2]: 1.52 O.D
- O.D, FX activation by NovoSeven (0.64 ng/ml), TFPI 0.2560 ng/ml [2]: 1.43 O.D
- O.D, FX activation by NovoSeven (0.64 ng/ml), TFPI 1.28 ng/ml [2]: 1.47 O.D
- O.D, FX activation by NovoSeven (0.64 ng/ml), TFPI 6.40 ng/ml [2]: 1.42 O.D
- O.D, FX activation by NovoSeven (0.64 ng/ml), TFPI 32.00 ng/ml [2]: 1.38 O.D
- O.D, FX activation by NovoSeven (0.64 ng/ml), TFPI 160.00 ng/ml [2]: 1.34 O.D
- O.D, FX activation by NovoSeven (0.64 ng/ml), TFPI 800.00 ng/ml [2]: 1.04 O.D
- O.D, FX activation by NovoSeven (0.64 ng/ml), TFPI 4000.00 ng/ml [2]: 0.83 O.D
- O.D, FX activation by NovoSeven (0.64 ng/ml), TFPI 20000.00 ng/ml [2]: 0.429 O.D
Substance: Tissue Factor Pathway Inhibitor (TFPI) (from UniProt P10646 29-304)
